In patent US20240117018A1:

What was measured:
Experiment in all cases: cell-based or functional assay
[1] = biological target: HIV-1 Env of pseudovirus AC10.0.29 (HIV-1)
[2] = biological target: HIV-1 Env of pseudovirus THRO4156.18 (HIV-1)
[3] = biological target: HIV-1 Env of pseudovirus Ce2010_F5 (HIV-1)
[4] = biological target: HIV-1 Env of pseudovirus CNE53 (HIV-1)
[5] = biological target: HIV-1 Env of pseudovirus BJOX009000.02.4 (HIV-1)
[6] = biological target: HIV-1 Env of pseudovirus CAP210.2.00.E8 (HIV-1)
[7] = biological target: HIV-1 Env of pseudovirus X1632_S2_B10 (HIV-1)
[8] = biological target: HIV-1 Env of pseudovirus ZM109F.PB4 (HIV-1)
[9] = biological target: HIV-1 Env of pseudovirus Du172.17 (HIV-1)
[10] = biological target: HIV-1 Env of pseudovirus 0260.v5.c36 (HIV-1)
[11] = biological target: HIV-1 Env of pseudovirus X2088_c9 (HIV-1)
[12] = biological target: HIV-1 Env of pseudovirus Q259.d2.17 (HIV-1)
[13] = biological target: HIV-1 Env of pseudovirus QH0692.42 (HIV-1)
[14] = biological target: HIV-1 Env of pseudovirus 249M B10 (HIV-1)
[15] = biological target: HIV-1 Env of pseudovirus MS208.A1 (HIV-1)
[16] = biological target: HIV-1 Env of pseudovirus HIV-0013095-2.11 (HIV-1)
[17] = biological target: HIV-1 Env of pseudovirus TRO.11 (HIV-1)
[18] = biological target: HIV-1 Env of pseudovirus C1080.c03 (HIV-1)
[19] = biological target: HIV-1 Env of pseudovirus ZM53M.PB12 (HIV-1)
[20] = biological target: HIV-1 Env of pseudovirus 191084 B7-19 (HIV-1)
[21] = biological target: HIV-1 Env of pseudovirus CNE17 (HIV-1)
[22] = biological target: HIV-1 Env of pseudovirus T250-4 (HIV-1)
[23] = biological target: HIV-1 Env of pseudovirus ZM135M.PL10a (HIV-1)
[24] = biological target: HIV-1 Env of pseudovirus 6041.v3.c23 (HIV-1)
[25] = biological target: HIV-1 Env of pseudovirus PVO.4 (HIV-1)
[26] = biological target: HIV-1 Env of pseudovirus T278-50 (HIV-1)
[27] = biological target: HIV-1 Env of pseudovirus WITO4160.33 (HIV-1)
[28] = biological target: HIV-1 Env of pseudovirus WEAU_d15_410_787 (HIV-1)
[29] = biological target: HIV-1 Env of pseudovirus 3365.v2.c2 (HIV-1)
[30] = biological target: HIV-1 Env of pseudovirus Ce1086_B2 (HIV-1)
[31] = biological target: HIV-1 Env of pseudovirus ZM247v1(Rev-) (HIV-1)
[32] = biological target: HIV-1 Env of pseudovirus CNE8 (HIV-1)
[33] = biological target: HIV-1 Env of pseudovirus Ce2060_G9 (HIV-1)
[34] = biological target: HIV-1 Env of pseudovirus ZM233M.PB6 (HIV-1)
[35] = biological target: HIV-1 Env of pseudovirus ZM214M.PL15 (HIV-1)
[36] = biological target: HIV-1 Env of pseudovirus X1193_c1 (HIV-1)
[37] = biological target: HIV-1 Env of pseudovirus CNE52 (HIV-1)

Question: What does the source list for N49P7 (antibody)?
Answer: IC50 [1]: 5.03 µg/mL; IC80 [1]: 36.7 µg/mL; MPI [1]: 89; IC50 [2]: 2.34 µg/mL; IC80 [2]: 12.4 µg/mL; MPI [2]: 99; IC50 [3]: 0.13 µg/mL; IC80 [3]: 0.547 µg/mL; MPI [3]: 100; IC50 [4]: 0.035 µg/mL; IC80 [4]: 0.124 µg/mL; MPI [4]: 100; IC50 [5]: 0.113 µg/mL; IC80 [5]: 0.506 µg/mL; MPI [5]: 100; IC50 [6]: 1.82 µg/mL; IC80 [6]: 6.49 µg/mL; MPI [6]: 100; IC50 (neutralisation, TZM.bl cells) [7]: 12 µg/mL; IC80 (neutralisation, TZM.bl cells) [7]: 40.4 µg/mL; MPI [7]: 85; IC50 [8]: 0.034 µg/mL; IC80 [8]: 0.153 µg/mL; MPI [8]: 100; IC50 [9]: 0.102 µg/mL; IC80 [9]: 0.668 µg/mL; MPI [9]: 100; IC50 [10]: 0.354 µg/mL; IC80 [10]: 0.884 µg/mL; MPI [10]: 100; IC50 [11]: 0.116 µg/mL; IC80 [11]: 0.338 µg/mL; MPI [11]: 100; IC50 [12]: 0.332 µg/mL; IC80 [12]: 2.47 µg/mL; MPI [12]: 98; IC50 [13]: 0.663 µg/mL; IC80 [13]: 2.41 µg/mL; MPI [13]: 100; IC50 [14]: 0.081 µg/mL; IC80 [14]: 0.377 µg/mL; MPI [14]: 100; IC50 [15]: 0.12 µg/mL; IC80 [15]: 0.479 µg/mL; MPI [15]: 100; IC50 [16]: 0.073 µg/mL; IC80 [16]: 0.253 µg/mL; MPI [16]: 100; IC50 [17]: 0.044 µg/mL; IC80 [17]: 0.16 µg/mL; MPI [17]: 100; IC50 [18]: 0.114 µg/mL; IC80 [18]: 0.765 µg/mL; MPI [18]: 100; IC50 [19]: 0.251 µg/mL; IC80 [19]: 0.8 µg/mL; MPI [19]: 100; IC50 [20]: 0.047 µg/mL; IC80 [20]: 0.142 µg/mL; MPI [20]: 100; IC50 [21]: 0.126 µg/mL; IC80 [21]: 0.46 µg/mL; MPI [21]: 100; IC50 [22]: 2.07 µg/mL; IC80 [22]: 21.4 µg/mL; MPI [22]: 91; IC50 [23]: 0.2 µg/mL; IC80 [23]: 0.96 µg/mL; MPI [23]: 100; IC50 (neutralisation, TZM.bl cells) [24]: 0.047 µg/mL; IC80 (neutralisation, TZM.bl cells) [24]: 0.222 µg/mL; MPI [24]: 100; IC50 [25]: 0.107 µg/mL; IC80 [25]: 0.365 µg/mL; MPI [25]: 100; IC50 [26]: 22.3 µg/mL; IC80 [26]: > 50 µg/mL; MPI [26]: 75; IC50 [27]: 0.084 µg/mL; IC80 [27]: 0.248 µg/mL; MPI [27]: 100; IC50 [28]: 0.045 µg/mL; IC80 [28]: 0.117 µg/mL; MPI [28]: 100; IC50 [29]: 0.07 µg/mL; IC80 [29]: 0.186 µg/mL; MPI [29]: 100; IC50 [30]: 0.089 µg/mL; IC80 [30]: 0.568 µg/mL; MPI [30]: 100; IC50 [31]: 0.062 µg/mL; IC80 [31]: 0.214 µg/mL; MPI [31]: 100; IC50 [32]: 0.037 µg/mL; IC80 [32]: 0.125 µg/mL; MPI [32]: 100; IC50 [33]: 0.661 µg/mL; IC80 [33]: 2.55 µg/mL; MPI [33]: 100; IC50 [34]: 0.226 µg/mL; IC80 [34]: 0.774 µg/mL; MPI [34]: 100; IC50 [35]: 0.213 µg/mL; IC80 [35]: 0.953 µg/mL; MPI [35]: 100; IC50 [36]: 0.016 µg/mL; IC80 [36]: 0.06 µg/mL; MPI [36]: 100; IC50 [37]: 8 ng/mL; IC80 [37]: 0.023 µg/mL; MPI [37]: 100
